In PMC9845754:

Molecular target: taxol-stabilized microtubules polymerized from porcine brain tubulin (porcine) (UniProt P02550)
Experiment: co-sedimentation; 0, 1, 2, 4, 6, 8 or 10 µM ICR2-His6 added to taxol-stabilized microtubules (5 µM tubulin) in PEMT (100 mM PIPES, 1 mM EGTA, 1 mM MgCl2, 1 mM GTP, 20 µM taxol, pH 6.9); 100,000 g, 25°C, 15 min; SDS-PAGE, Coomassie, densitometry

stoichiometry N (mol ICR2-His6 per mole of tubulin): 0.85
Substance: ICR2-His6 (from UniProt Q9ZQC5 56-583) (natural protein)
